The record followed here is US8415106B2, “Cell-based screen for agents useful for reducing neuronal demyelination or promoting neuronal remyelination” (Myelin Repair Foundation, Inc., priority 2005, dated 2013).

The experiment relates to oligodendrocytes and myelin in the corpus callosum. The experiment is described as follows: Cuprizone-induced demyelination/remyelination in GFAP/tTA; TRE/IFN-γ double transgenic mice. It is filed as in vivo. How it is done:
The effects of IFN-γ on demyelination were evaluated in a cuprizone animal model using transgenic mice that allow for temporally regulated delivery of IFN-γ using the tetracycline controllable system (Lin, et al. (2004) J. Neurosci. 24: 10074-10083). The transgenic mice were generated by mating line 110 GFAP/tTA mice on the C57BL/6 background with line 184 TRE/IFN-γ on the C57BL/6 background to produce GFAP/tTA; TRE/IFN-γ double transgenic mice (Lin, et al. (2004) J. Neurosci. 24: 10074-10083). Transcriptional activation of the TRE/IFN-γ transgene by tTA was repressed in the control (DOX+) mice by adding 0.05 mg/ml doxycycline to the drinking water which was provided ad libitum from the day of conception. The DOX+ double transgenic mice were GFAP/tTA; TRE/IFN-γdouble transgenic animals fed cuprizone chow and never released from the doxycycline solution. DOX− double transgenic mice were GFAP/tTA; TRE/IFN-γdouble transgenic animals fed cuprizone chow and released from doxycycline to induce expression of IFN-γ.
Demyelination was induced in 6-week-old DOX+ and DOX− male mice by feeding the mice a diet of milled mouse chow containing 0.2% cuprizone (Sigma-Aldrich, St. Louis, Mo.) for up to 6 weeks. Subsequently, both groups of mice were returned to a normal diet for up to 3 weeks to allow remyelination to occur. All animal procedures were conducted in complete compliance with the NIH Guide for the Care and Use of Laboratory Animals and were approved by the Institutional Animal Care and Use Committee of The University of Chicago.
The effect of INF-γ on the population of oligodendrocytes was evaluated by immunohistochemical analysis of oligodendrocytes using an anti-CC1 antibody (APC7, 1:50; EMD Biosciences, Inc., La Jolla, Calif.) Immunohistochemistry was performed on brain sections obtained from mice that were first anesthetized mice and perfused through the left cardiac ventricle with 4% paraformaldehyde in 0.1M PBS. The brains were removed, postfixed with paraformaldehyde, cryopreserved in 30% sucrose, embedded in OCT and frozen on dry ice. Frozen sections were cut in a cryostat at a thickness of 10 μm. […] Fluorescent stained sections were mounted with Vectashield mounting medium with DAPI (Vector Laboratories) and visualized with a Zeiss Axioplan fluorescence microscope. […] Immunopositive cells were quantified by counting positive cells within the median of the corpus callosum, confined to an area of 0.04 mm^2. Only those cells with nuclei observable by DAPI staining were counted. Each MBP immunostaining slide was scored on a scale of zero to four. […]

B1: IFN-γ: pleotropic cytokine secreted by activated T lymphocytes and natural killer cells; recombinant rat IFN-γ added to cultures or transgenically expressed in mouse CNS (protein, UniProt P01581 23-156, looked up)
Interferon gamma: QGTLIESLESLKNYFNSSSMDAMEGKSLLLDIWRNWQKDGNTKILESQIISFYLRLFEVLKDNQAISNNISVIESHLITNFFSNSKAKKDAFMSIAKFEVNNPQIQHKAVNELIRVIHQLSPESSLRKRKRSRC
Consider B1, for which the remyelinated axons (DOX− mice (IFN-γ expressed), corpus callosum, week 8, control DOX+ 48.4%±4%) is 26.9%±7%. In addition, the “CC1 positive oligodendrocytes within the corpus callosum” value (DOX− mice, 8 weeks, control DOX+ 228.7±20.2) is recorded as 78±12.7 /0.04 mm2. Further, the “NG2 positive OPCs in the corpus callosum” value runs as follows: (DOX− mice, week 4 of cuprizone treatment, DOX+ 19±2.12) 46±4.24 /0.04 mm^2; (DOX− mice, week 6, DOX+ 80±2.8) 31.5±0.71 /0.04 mm^2.
